Measured values: the supplement of paper PMC9170038

Tested on: MS2 coat protein
Test: apparent KD of MS2 coat protein; designed switch direction (-1 OFF switch, 1 ON switch): -1; higher = weaker reporter binding
In short: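 For each design, the apparent KD is the median over clusters of curves fitted to normalised cluster fluorescence. Clusters held RNA switches with common flanks, transcribed on Illumina chips by stalled E. coli RNA polymerase. These were titrated with SNAP-549-labelled MS2 coat protein, doubling from 0.7 or 1.5 nM to 3 µM, without input, with 200 uM small-molecule ligand, or with an oligonucleotide input.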

[1] = Eterna round: R95, input ligand: FMN 200 uM
[2] = Eterna round: R95, input ligand: microRNA oligo, concentration not stated
[3] = Eterna round: R95, input ligand: none
[4] = input ligand: microRNA oligo, concentration not stated

AAGUAUAGAGGAUAUAGUGAGUACUACAUGAGGAUCACCCAUGUUCUUCGAAACGUAUUUCUAGAAGGCUGAUAAA [EX-5 Malc#22] (puzzle: Exclusion 5)
apparent KD of MS2 coat protein [1]: 35.3 nM | apparent KD of MS2 coat protein [2]: 28.2 nM | apparent KD of MS2 coat protein [3]: 29.2 nM

GAGAGACGAGGAUAUGCAGGAGUGCAGUCAGGUUCCAAAAUACAUGAGGAUCACCCAUGUAGAAGGUGUCAUCU [Eternabot (L2) Solution 26] (Eterna round: R97, puzzle: Exclusion 2)
apparent KD of MS2 coat protein (input ligand: FMN 200 uM): 16.6 nM | apparent KD of MS2 coat protein (input ligand: none): 15.6 nM

GAAAAACAUGAGGAUCACCCAUGUAAGGAUAUGCUGAAAAAACACUGGAAACAGUGCAGCAGAAGGUACAAAAG [Mat - Exclusion 1 - Eli mod - D100] (Eterna round: R96, puzzle: Exclusion 1)
apparent KD of MS2 coat protein [4]: 47.6 nM

GUGGUCCGAGGAUAUAUUAUGUGAUACAUGAGGAUCACCCAUGUUAUAUGAUGGAUGUUAGUAGAAGGCGGACUAC [Mat - Exclusion 5 - JL mod - D82] (puzzle: Exclusion 5)
apparent KD of MS2 coat protein [1]: 95.2 nM | apparent KD of MS2 coat protein [2]: 86.2 nM | apparent KD of MS2 coat protein [3]: 96.4 nM

CCGGCUGCUGUGAGGAUAUGCCUGUGGGUGCGUGGGCAGAAGGCACAUGAGGAUCACCCAUGUCCUGCGGUCCC [salish99_bmx4_r4_114] (Eterna round: R97, puzzle: Brourd's mod of Exclusion 4)
apparent KD of MS2 coat protein (input ligand: FMN 200 uM): 21 nM | apparent KD of MS2 coat protein (input ligand: none): 26.6 nM

GCCAGAGCAGGAUAUUCAAUAUUCCACAUGAGGAUCACCCAUGUCCUGCGAAAGCAGGAGGGAGAAGGGCUCUGGC [Mat - Exclusion 5 - Eli mod - D91] (puzzle: Exclusion 5)
apparent KD of MS2 coat protein [2]: 56.2 nM

UUCGUGCAGCUUUGCUGUACGCGUACAUGAGGAUCACCCAUGUAGGAUAUGGUAGGCUUUGCUUACUAGAAGGAUAUAGUGAUC [JL EXNG3 1.31] (Eterna round: R96, puzzle: Exclusion NG 3)
apparent KD of MS2 coat protein [4]: 138 nM

UAACGUGGCCUGAUCCUCCCUAACAUGAGGAUCACCCAUGUCUAGGAUAUCCGAACAAACAACGAGGAGAAGGAGACGAAACAU [Veleedan] (Eterna round: R96, puzzle: Exclusion NG 3)
apparent KD of MS2 coat protein (input ligand: FMN 200 uM): 37.5 nM | apparent KD of MS2 coat protein [4]: 22.7 nM | apparent KD of MS2 coat protein (input ligand: none): 28.3 nM

UACAUGAGGAUCACCCAUGUUUUGUCGUGUAUGGUAUUUAUCUAGGAUAUCAAGUUAUUAAUUUAUGAGAAGGAGAAUAUUAAU [JMF's solution 32] (Eterna round: R96, puzzle: Exclusion NG 3)
apparent KD of MS2 coat protein (input ligand: FMN 200 uM): 43.9 nM | apparent KD of MS2 coat protein [4]: 27.4 nM | apparent KD of MS2 coat protein (input ligand: none): 42.1 nM

CACCGUUAAGUAGGAUAUCGUACAUGAGGAUCACCCAUGUAAUAAAUGAGAAUUUCGGAUGUAUGCGAGAAGGACUAAAUCGGC [Ostricism 45 - Jieux - Exclusion NG 2] (Eterna round: R96, puzzle: Exclusion NG 2)
apparent KD of MS2 coat protein [4]: 39 nM

UUAUAUAGUGUGAGGAUAUGCUGGUCCUUGGAUCAGCAGAAGGCACAUGAGGAUCACCCAUGUAGUUAAUUAUA [Mat - Exclusion 4 - JL Mod - D15] (puzzle: Brourd's mod of Exclusion 4)
apparent KD of MS2 coat protein [2]: 30.1 nM

GUGCGUGGCUAGGAUAUUGAGGAAUUUAGUCAGCGAGAAGGAGCCACAUGAGGAUCACCCAUGUGGUGAAGCUC [salish99_ex6_r4_001] (Eterna round: R97, puzzle: Exclusion 6)
apparent KD of MS2 coat protein (input ligand: FMN 200 uM): 70.2 nM | apparent KD of MS2 coat protein (input ligand: none): 17.9 nM

UAUUAGCAAGCAAAUGGGUACAUGAGGAUCACCCAUGUGCUCGUCUUAUAAGGUACUGUGACGAAAGUCACGGUCCC [mod--Eli7] (Eterna round: R97, puzzle: Sensor, turn-off variant 1)
apparent KD of MS2 coat protein (input ligand: FMN 200 uM): 23 nM | apparent KD of MS2 coat protein (input ligand: none): 24 nM

AAUAGUCGGUAGGAUAUCCACGGAUGACCGGCAGGAGAAGGGCCGACUUGAGGAUCACCCAAGUAUGGUCCAAC [Ortiqumate] (Eterna round: R97, puzzle: Exclusion 6)
apparent KD of MS2 coat protein (input ligand: FMN 200 uM): 25.1 nM | apparent KD of MS2 coat protein (input ligand: none): 13.9 nM

UACAUGAGGAUCACCCAUGUUUUGUCGUGUAUGGUAUUUAUCUAGGAUAUCAAUUUAUUAAUUUAUGAGAAGGAGAAUAUUAAU [JMF's solution 20] (Eterna round: R96, puzzle: Exclusion NG 3)
apparent KD of MS2 coat protein (input ligand: FMN 200 uM): 34.4 nM | apparent KD of MS2 coat protein [4]: 25.8 nM | apparent KD of MS2 coat protein (input ligand: none): 43.3 nM

AUUUUGUGAGGAUAUGGUAACGUUUACAUGAGGAUCACCCAUGUUUCAUGGGACUAGAGACUAGAAGGCACUAACG [JR_Ex5_Sub028] (Eterna round: R97, puzzle: Exclusion 5)
apparent KD of MS2 coat protein (input ligand: FMN 200 uM): 251 nM | apparent KD of MS2 coat protein (input ligand: none): 279 nM

GUGGUUUGUGUAGGAUAUUCGUUUGUGCGGUGCGGAGAAGGACAUGAGGAUCACCCAUGUGUGCGAGGAUCACCCGUGUGUUGU [double 2 (less A)] (Eterna round: R96, puzzle: Exclusion NG 1)
apparent KD of MS2 coat protein (input ligand: FMN 200 uM): 55.6 nM | apparent KD of MS2 coat protein [4]: 40.3 nM | apparent KD of MS2 coat protein (input ligand: none): 50.5 nM

GUGGUACAUGAGGAUCACCCAUGUUAGGAUAUCGCGUGAGGUUUUACUUCCGCGCGCGCGAGAAGGGACGUCUU (puzzle: Exclusion 1)
apparent KD of MS2 coat protein [2]: 23.3 nM

UUAAUUAAUUAAGCGCAAGAUCACAUGAGGAUCACCCAUGUAUAGGAUAUCAGCUCGUGUAGAGCUGAGAAGGAUACAUAGCGC [ExNG3/2-A3] (Eterna round: R96, puzzle: Exclusion NG 3)
apparent KD of MS2 coat protein (input ligand: FMN 200 uM): 1030 nM | apparent KD of MS2 coat protein [4]: 184 nM | apparent KD of MS2 coat protein (input ligand: none): 143 nM

UGAGGACAUGAGGAUCACCCAUGUAAGGAUAUGCGGAGAGUUUGGAGAGGUUGAGGAGGCAGAAGGUACGGGAU [JR_Exclu1_Sub046] (Eterna round: R96, puzzle: Exclusion 1)
apparent KD of MS2 coat protein (input ligand: FMN 200 uM): 144 nM | apparent KD of MS2 coat protein [4]: 47.4 nM | apparent KD of MS2 coat protein (input ligand: none): 103 nM

GACUGCCGAGGAUAUACAUGAGGAUCACCCAUGUGCUUCAGCAUUUAAUAAUGCAUGGGUAGAAGGCGGUAGUC [LRO-Excl3-12] (puzzle: Exclusion 3)
apparent KD of MS2 coat protein [2]: 40.5 nM

UUUUUAUAUGAAGGAUAUACUAAACAUGAGGAUCACCCAUGUGGUGUUGUGAGUGAGAGAGAUAAGUAGAAGGUCAAUUAUUUU [JMF's solution 4] (Eterna round: R96, puzzle: Exclusion NG 2)
apparent KD of MS2 coat protein (input ligand: FMN 200 uM): 348 nM | apparent KD of MS2 coat protein [4]: 62.6 nM | apparent KD of MS2 coat protein (input ligand: none): 90.8 nM

UGAUGACAUGAGGAUCACCCAUGUCAGGAUAUUGAGCUUGAGCUGAAAAGUUCGAGUUCGAGAAGGGACUGUCG [-29.6, -26.6 kcal, A 28%, 1] (Eterna round: R97, puzzle: Exclusion 1)
apparent KD of MS2 coat protein (input ligand: FMN 200 uM): 28.2 nM | apparent KD of MS2 coat protein (input ligand: none): 29 nM

AAAUCCGCUGAGGAUAUCAUGACUGAGAGGUCAUGAGAAGGCGGUACAUGAGGAUCACCCAUGUCUAUGGGCAA [Ex-6 Malc#28] (puzzle: Exclusion 6)
apparent KD of MS2 coat protein [2]: 386 nM

GCACGGAAUGUAGGAUAUUAGUGCGAUUAGCACUGAGAAGGACAUGAGGAUCACCCAUGUUCCUCAAUAAUAAACCUUCCGUGC [Eli exng1 - 044] (Eterna round: R96, puzzle: Exclusion NG 1)
apparent KD of MS2 coat protein (input ligand: FMN 200 uM): 13 nM | apparent KD of MS2 coat protein [4]: 10.2 nM | apparent KD of MS2 coat protein (input ligand: none): 13.3 nM

CGUACUAACACGAAAGUGUUAGUACAAUAAGCUUGUGAAACAUGAGGAUCACCCAUGUCCUCAUAAGCUCGUCUUAU [salish99_TOv2_r3_007] (Eterna round: R96, puzzle: Sensor v3, turn-off variant 2)
apparent KD of MS2 coat protein (input ligand: FMN 200 uM): 15.6 nM | apparent KD of MS2 coat protein [4]: 486 nM | apparent KD of MS2 coat protein (input ligand: none): 17.9 nM
